From PMC3626232 (The Journal of biological chemistry, 2000)

T1: XMcm2 (Xenopus (endogenous in Xenopus egg …, UniProt P55861 1-886))
T1 sequence (looked up): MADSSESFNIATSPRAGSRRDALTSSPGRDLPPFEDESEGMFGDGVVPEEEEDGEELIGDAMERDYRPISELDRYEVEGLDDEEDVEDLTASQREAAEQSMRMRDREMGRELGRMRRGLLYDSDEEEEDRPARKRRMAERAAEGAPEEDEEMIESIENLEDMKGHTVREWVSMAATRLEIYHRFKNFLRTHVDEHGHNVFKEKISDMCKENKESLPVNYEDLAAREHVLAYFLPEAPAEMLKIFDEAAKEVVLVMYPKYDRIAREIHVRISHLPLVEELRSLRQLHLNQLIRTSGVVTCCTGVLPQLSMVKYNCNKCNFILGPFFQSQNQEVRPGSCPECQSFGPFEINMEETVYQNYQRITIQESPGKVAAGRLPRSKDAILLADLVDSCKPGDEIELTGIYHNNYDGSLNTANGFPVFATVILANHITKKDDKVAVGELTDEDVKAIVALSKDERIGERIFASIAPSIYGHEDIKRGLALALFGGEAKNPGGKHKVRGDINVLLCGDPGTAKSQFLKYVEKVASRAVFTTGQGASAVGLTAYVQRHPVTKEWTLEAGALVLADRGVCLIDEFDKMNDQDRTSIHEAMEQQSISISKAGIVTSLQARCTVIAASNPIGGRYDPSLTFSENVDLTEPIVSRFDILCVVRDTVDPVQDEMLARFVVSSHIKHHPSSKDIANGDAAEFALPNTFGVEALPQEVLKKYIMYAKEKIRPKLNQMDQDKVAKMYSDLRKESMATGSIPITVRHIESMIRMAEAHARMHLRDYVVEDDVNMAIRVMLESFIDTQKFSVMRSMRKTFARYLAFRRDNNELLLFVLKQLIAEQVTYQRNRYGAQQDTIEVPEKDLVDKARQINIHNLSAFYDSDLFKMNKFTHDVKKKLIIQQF

T2: XMcm3 (Xenopus (endogenous in Xenopus egg …, UniProt P49739 1-807))
T2 sequence (looked up): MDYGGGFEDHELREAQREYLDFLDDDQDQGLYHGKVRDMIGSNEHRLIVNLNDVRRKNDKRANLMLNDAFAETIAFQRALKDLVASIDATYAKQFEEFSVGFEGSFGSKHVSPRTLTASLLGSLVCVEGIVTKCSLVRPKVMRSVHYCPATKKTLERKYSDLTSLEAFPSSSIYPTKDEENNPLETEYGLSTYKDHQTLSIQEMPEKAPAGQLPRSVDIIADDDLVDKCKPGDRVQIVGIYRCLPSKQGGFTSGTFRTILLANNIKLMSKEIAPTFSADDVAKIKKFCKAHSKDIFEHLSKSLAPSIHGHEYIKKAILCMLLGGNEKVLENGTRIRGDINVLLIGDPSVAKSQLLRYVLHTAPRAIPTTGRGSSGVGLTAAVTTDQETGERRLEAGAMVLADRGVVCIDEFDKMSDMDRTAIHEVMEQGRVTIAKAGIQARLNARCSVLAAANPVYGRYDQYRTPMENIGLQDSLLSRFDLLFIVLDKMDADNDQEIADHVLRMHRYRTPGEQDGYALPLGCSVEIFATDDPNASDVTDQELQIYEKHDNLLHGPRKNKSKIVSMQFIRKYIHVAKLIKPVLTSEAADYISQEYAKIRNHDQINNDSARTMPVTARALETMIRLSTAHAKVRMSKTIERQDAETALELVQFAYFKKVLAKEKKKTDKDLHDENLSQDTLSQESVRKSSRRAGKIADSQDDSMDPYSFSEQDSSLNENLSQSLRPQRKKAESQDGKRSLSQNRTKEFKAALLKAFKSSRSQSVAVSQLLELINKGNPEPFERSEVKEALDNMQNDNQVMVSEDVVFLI

B1: XMcm4 (natural protein, UniProt P30664 1-863, looked up)
chain: MSSPTSTPSRRRNKRGRGSNPPTPHGEEVQSPPSQRRRTEDSTSIGELLPMPTSPSGDVQSPSGQELLFSSPAPSRHSAHQSELDLSSPLTYGTPSSRVEGTPRSGIRGTPARQRPDLGSARKVKQVDLHSDQPAAEELVTSEQSLGQKLVIWGTDVNVATCKEKFQRFVQRFIDPSAKEEDNVGLDLNEPIYMQRLEEINVVGDPFLNIDCDHLRNFDQDLYRQLVCYPQEVIPTFDMAANEIFFERYPDSILEHQIQVRPYNALKTRNMRSLNPEDIDQLITISGMVIRTSQIIPEMQEAFFKCQVCAFTTRVEIDRGRIAEPSVCKHCNTTHSMALIHNRSMFSDKQMIKLQESPEDMPAGQTPHTTILYGHNDLVDKVQPGDRVNVTGIYRAVPIRVNPRVRNVKSVYKTHIDVIHYRKTDSKRLHGIDEDTEQKLFTEERVAMLKELAAKPDIYERLAAALAPSIYEHEDIKKGILLQLFGGTRKDFSHTGRGKFRAEVNILLCGDPGTSKSQLLQYVFNLVPRGQYTSGKGSSAVGLTAYVMKDPETRQLVLQTGALVLSDNGICCIDEFDKMNESTRSVLHEVMEQQTLSIAKAGIICQLNARTSVLAAANPVESQWNPKKTTIENIQLPHTLLSRFDLIFLMLDPQDEAYDRRLAHHLVALYYQSEEQMKEEHLDMAVLKDYIAYARTYVNPRLSEEASQALIEAYVSMRKIGSGRGMVSAYPRQLESLIRLSEAHAKVRFSNKVETIDVEEAKRLHREALKQSATDPRTGIVDISILTTGMSATARKRKEELAQVLKKLIQSKGKTPALKYQQLFEDLRGQSDAAITKDMFDEALHALADDDYLTVTGKTVRLL

Experiments:
Test in all cases: co-purification by chromatography with densitometry
[1] = biological target: T1, XMcm2
[2] = biological target: B1
[3] = biological target: T2, XMcm3

stoichiometry N [1]	stoichiometry N [2]	binding result [3]	stoichiometry N [3]	Binder
1.1 XMcm4 per 1.0 XMcm2	–	–	–	B1
1.1 XMcm6 per 1.0 XMcm2	1 XMcm6 per 1.0 XMcm4	–	–	XMcm6 (natural protein, UniProt Q5FWY4 1-821, looked up) MELGGPAAAGDTDIAGQQLFKDELSDKCQKLFLEFLEECKGKDGSNLYVSAAEELIRPERNTLAVNFTDIEYYNQQLATTIQEEYYRVYPHLCRAVRSFARQMGNIPANKEFYIAFSDFPARQKIRELSSAKIGTLLRISGQVVRTHPVHPELVSGTFLCMDCQSIVKDVEQQFRYTQPTICKNPVCANRRRFTLDTNKSRFVDFQKVRIQETQAELPRGAIPRSVEIILRAEAVESAMAGDRCDFTGTLIVVPDVSALAAGDARMETGAKVTGGEGFNSEGVQGLKALGVRDLSYRLAFLACYVGATNPRFGGKDLREEDQTAESIKNQMTVQEWEKVFEMSQDKNLYHNLCTSLFPTIHGNDEIKRGVLLMLFGGVPKTTMEGTSLRGDINVCIVGDPSTSKSQFLKHVEEFSPRAVYTSGKASSAAGLTAAVVKDEESHEFVIEAGALMLADNGVCCIDEFDKMDLKDQVAIHEAMEQQTISITKAGVKATLNARTSILAAANPVGGRYERSKSLKHNVNLSAPIMSRFDLFFILVDECNEVTDYAIARRIVDLHARNEESIERVYSIEDIQRYLLFARQFQPKITKEAEEFIVEQYRRLRQRDGSGVAKSSWRITVRQLESLIRLSESMARMHCSDEVQPKHVKEAFRLLSKSIIRVDTPDVSFDQGEDEKNIEGENNGNLNNGEEAMETNQDEPINEKPSSNAGLKMSFAEYKQISNLLVLYMQKMEETEEECHLTTTDLVNWYLKEMEAEIETETELILKKRLIEKVIHRLIYYDHILIELNKSELKTMDDTKETGEDAAEDRILVVNPNYMLED
1.1 XMcm7 per 1.0 XMcm2	1.1 XMcm7 per 1.0 XMcm4	binds	–	XMcm7 (natural protein, UniProt Q91876 1-720, looked up) MPRDYQTEKEKCKTFLQEFYKDDEIGKKHFKYGVQLANIAHREQVALYIDLDDLAEEDPELVDAICENTRRYTNLFADAVQELLPQYKEREVVHKDALDVYIEHRLMMEQRGRDPNEMRDSQNQYPPELMRRFELYFKAPSSSKARVVRDVKADSIGKLVNIRGIVTRVTEVKPMMVVATYTCDQCGAETYQPIQSPTFMPLIMCPSRECQTNRSGGRLYLQTRGSKFIKFQELKIQEHSDQVPVGNIPRCMSVYVRGENTRLAQPGDHVGITGVFLPMLRTGFRQVVQGLLSETYLECHRLVKMNKSEDDELGTEELSEEELRQITEEDFYEKLAASIAPEIYGHEDVKKALLLLLVGGVDNSPRGMKIRGNINICLMGDPGVAKSQLLSYIDRLAPRSQYTTGRGSSGVGLTAAVMKDPVTGEMTLEGGALVLADQGVCCIDEFDKMMDTDRTAIHEVMEQQTISIAKAGIMTTLNARCSILAAANPAYGRYNPKKTVEQNIQLPAALLSRFDVLWLIQDKPDRDNDLRLAQHITYVHQHSKQPPSQFQPLDMKLMRRYITMCKRKQPAIPEALADYLTAAYVEMRKEARTNKDMTFTSARTLLSVLRLSTALARLRLEDVVEKEDVNEAMRLMEMSKDSLLGDKGHTSRTQRPADVIFSTIREMVPEKGARSVKYSEAEQRCVSKGFTPAQFEAALEEYEELNVWLVNQARTKITFV
–	–	–	1.2 XMcm5 per 1.0 XMcm3	XMcm5 (natural protein, UniProt P55862 1-735, looked up) MSGFDDLGVYYSDSFGGEQQVGDDGQAKKSQLKKRFREFLRQYRIGTDRTGFTFKYRDELKRHYNLGEYWIEVEMEDLASFDEDLADYLYKQPTEHLQLLEEAAQEVADEVTRPRPAGEETIQEIQVMLRSDANPANIRSLKSEQMSHLVKIPGIIIAATAVRAKATKISIQCRSCRNTIGNIAVRPGLEGYAMPRKCNTEQAGRPNCPLDPYFIIPDKCKCVDFQTLKLQESPDAVPHGELPRHMQLYCDRYLCDKVVPGNRVTIMGIYSIRKSGKTSTKGRDRVGVGIRSSYIRVVGIQVDTEGTGRSAAGAITPQEEEEFRRLAAKPDIYETVAKSIAPSIYGSSDIKKAIACLLFGGSRKRLPDGLTRRGDVNLLMLGDPGTAKSQLLKFVERCSPIGVYTSGKGSSAAGLTASVMRDPVSRNFIMEGGAMVLADGGVVCIDEFDKMREDDRVAIHEAMEQQTISIAKAGITTTLNSRCSVLAAANSVYGRWDDTKGEENIDFMPTILSRFDMIFIVKDEHNEQRDMTLAKHVMNVHLSARTQSSSVEGEVDLNTLKKYIAYCRAKCGPRLSAEAAEKLKNRYILMRSGAREHERETEKRSSIPITVRQLEAIVRISESLGKMKLQPFATETDVEEALRLFQVSTLDAAMSGSLSGVEGFTTQEDQEMLSRIEKQMKKRFAIGSQVSEHSIIQDFLKQKYPEHAIHKVLSLMMRRGEIQHRLQRKVLYRIK
